From US20070248609A1

Molecular target: T1, Activin A (endogenous, mouse, released after LPS) (mouse) (UniProt Q04998)
T1 sequence (looked up): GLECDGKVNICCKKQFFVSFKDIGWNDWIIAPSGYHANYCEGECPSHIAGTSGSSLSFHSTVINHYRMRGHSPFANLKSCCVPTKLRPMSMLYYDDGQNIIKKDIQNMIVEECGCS
Assay: cell-based or functional assay

Substance: Recombinant human follistatin-288 (from UniProt P19883 30-317)
- IL-6 peak concentration in mice given 1 µg rhfollistatin-288 before LPS, against LPS alone: 2 fold
- IL-6 release in mice given 0.5 µg follistatin before LPS (LPS alone ≈20000 pg/ml): 30000 pg/mL
- IL-6 release in mice given 0.5 µg follistatin before LPS, against LPS alone: 50%
- IL-6 release in mice given 1 µg follistatin before LPS (LPS alone ≈20000 pg/ml): 50000 pg/mL
- IL-6 release in mice given 1 µg follistatin before LPS, against LPS alone: 250%
- IL-6 release in mice given 2 µg follistatin before LPS (LPS alone ≈20000 pg/ml): 20000 pg/mL
- TNFα release in plasma of mice given 1 µg rhfollistatin-288 30 min before LPS (% suppression): 50
